Measured values published in US20080181886A1 (Genentech, published 2008).

T1: Murine APRIL (mouse, UniProt Q9D777 105-241, limits assumed)
T1 sequence (looked up): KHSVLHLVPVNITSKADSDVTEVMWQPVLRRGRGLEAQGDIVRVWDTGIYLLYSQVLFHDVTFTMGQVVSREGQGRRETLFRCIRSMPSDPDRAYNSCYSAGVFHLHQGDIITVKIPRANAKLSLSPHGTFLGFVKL


Experiments:
human BAFF [1] = target: T2, human BAFF (human, UniProt Q9Y275 82-285, limits assumed); assay: shotgun scan, phage display
Text: (§1) Phage from each of the libraries described above were subjected to rounds of binding selection against APRIL, BAFF, or anti-tag antibody (3C8:2F4 Genentech, Inc.) immobilized on 96-well Nunc Maxisorp immunoplates (Sidhu, 2001). BSA-coated wells were used to determine non-specific background binding. Phage eluted from each target were propagated in E. coli XL1-Blue in the presence of M13K07 helper phage; amplified phage were used for selection against the same target in the […] round. […] Enrichment was calculated from the ratio of the phage titer eluted from the target-coated wells to the phage titer eluted from the BSA-coated wells. Individual clones from each library and selection target were then grown in a 96-well format in 400 ul of 2YT medium supplemented with carbenicillin and KO7 helper phage. […] Sequences of acceptable quality were translated and aligned. For APRIL-binding, 71, 40, and 54 sequences were analyzed from libraries one, two and three, respectively. For BAFF-binding, 70, 50, and 53 sequences were analyzed for libraries one, two and three, respectively. For the display selection, a minimum of 47 sequences were analyzed for each library. […] F values describe the effect of mutation on target binding, while accounting for differences in display efficiencies, with values >1 representing deleterious mutations and those <1 representing favorable mutations.

Murine APRIL [2] = target: T1, Murine APRIL; assay: shotgun scan, phage display
Text: as §1

human BAFF [3] = target: T2, human BAFF; assay: NNS library, phage display;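 also: ligand versus display occurrence-to-degeneracy ratio and higher means enriched by binding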
Method: (§2) This new phage library was subjected to sorting against either BAFF, APRIL or the display target antibody. After 3 rounds of sorting, approximately 48 clones were picked from each selection and the DNA sequences of the phage clones were determined. […] The normalized F′ value corrects for display bias and is calculated as the percent occurrence to percent degeneracy ratio for ligand selection divided by the percent occurrence to percent degeneracy ratio for display efficiency. Percent occurrence is calculated by dividing the number of times a particular amino acid appeared at a particular position by the total number of amino acids sequenced at that position followed by multiplying by 100. Percent degeneracy is calculated by dividing the degeneracy in code for a particular amino acid divided by the total degeneracy possible at that position followed by multiplying by 100 (e.g., if only A, G and I were selected, total degeneracy possible would be 5).

Murine APRIL [4] = target: T1, Murine APRIL; assay: NNS library, phage display;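 also: ligand versus display occurrence-to-degeneracy ratio and higher means enriched by binding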
Method: as §2

T2 sequence (Q9Y275 82-285 limits assumed): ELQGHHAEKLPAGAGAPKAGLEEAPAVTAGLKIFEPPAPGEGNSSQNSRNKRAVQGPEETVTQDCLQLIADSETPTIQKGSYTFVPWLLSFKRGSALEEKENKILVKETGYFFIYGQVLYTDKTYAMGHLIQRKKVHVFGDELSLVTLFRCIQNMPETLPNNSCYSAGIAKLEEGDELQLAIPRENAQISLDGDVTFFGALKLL

Binder	F (BAFF) (human BAFF [1])	F (APRIL) (Murine APRIL [2])	F' BAFF (human BAFF [3])	F' APRIL (Murine APRIL [4])
SLSCRKEQGKFYAHLLRDCISCASICGQHPKQCAYFCENKLR (receptor, phage library variant, format as m9) [TACI_d2 D80A]	> 42	> 43	–	–
SLSCRKEQGKFYDHLLRACISCASICGQHPKQCAYFCENKLR (receptor, phage library variant, format as m9) [TACI_d2 D85A]	0.8	0.5	–	–
SLSCRKAQGKFYDHLLRDCISCASICGQHPKQCAYFCENKLR (receptor, phage library variant, format as m9) [TACI_d2 E74A]	0.6	0.7	–	–
SLSCRKEQGKSYDHLLRDCISCASICGQHPKQCAYFCENKLR (receptor, phage library variant, format as m9) [TACI_d2 F78S]	–	> 66	0	0
SLSCRKEQGKFYDHLLRDCISCASICGQHPKQCAYVCENKLR (receptor, phage library variant, format as m9) [TACI_d2 F103V]	0.7	0.6	–	–
SLSCRKEQGKFYDHLLRDCISCASICAQHPKQCAYFCENKLR (receptor, phage library variant, format as m9) [TACI_d2 G94A]	10	34	–	–
SLSCRKEQGKFYDPLLRDCISCASICGQHPKQCAYFCENKLR (receptor, phage library variant, format as m9) [TACI_d2 H81P]	0.8	1.5	–	–
SLSCRKEQGKFYDHLLRDCASCASICGQHPKQCAYFCENKLR (receptor, phage library variant, format as m9) [TACI_d2 I87A]	> 30	> 27	–	–
SLSCRKEQGKFYDHLLRDCTSCASICGQHPKQCAYFCENKLR (receptor, phage library variant, format as m9) [TACI_d2 I87T]	> 22	> 19	–	–
SLSCRKEQGKFYDHLLRDCVSCASICGQHPKQCAYFCENKLR (receptor, phage library variant, format as m9) [TACI_d2 I87V]	1.1	1.4	–	–
SLSCRKEQGKFYDHLLRDCISCASACGQHPKQCAYFCENKLR (receptor, phage library variant, format as m9) [TACI_d2 I92A]	–	11	0	0
SLSCRAEQGKFYDHLLRDCISCASICGQHPKQCAYFCENKLR (receptor, phage library variant, format as m9) [TACI_d2 K73A]	2	1.6	–	–
SLSCRTEQGKFYDHLLRDCISCASICGQHPKQCAYFCENKLR (receptor, phage library variant, format as m9) [TACI_d2 K73T]	8.9	5	–	–
SLSCRKEQGEFYDHLLRDCISCASICGQHPKQCAYFCENKLR (receptor, phage library variant, format as m9) [TACI_d2 K77E]	0.9	1.4	–	–
SLSCRKEQGTFYDHLLRDCISCASICGQHPKQCAYFCENKLR (receptor, phage library variant, format as m9) [TACI_d2 K77T]	0.6	0.7	–	–
SLSCRKEQGKFYDHLLRDCISCASICGQHPTQCAYFCENKLR (receptor, phage library variant, format as m9) [TACI_d2 K98T]	8.7	6.4	–	–
SLSCRKEQGKFYDHLLRDCISCASICGQHPKQCAYFCENALR (receptor, phage library variant, format as m9) [TACI_d2 K107A]	1.1	0.9	–	–
SLSCRKEQGKFYDHLLRDCISCASICGQHPKQCAYFCENTLR (receptor, phage library variant, format as m9) [TACI_d2 K107T]	1.1	1.1	–	–
SLSCRKEQGKFYDHALRDCISCASICGQHPKQCAYFCENKLR (receptor, phage library variant, format as m9) [TACI_d2 L82A]	> 36	> 29	–	–
SLSCRKEQGKFYDHPLRDCISCASICGQHPKQCAYFCENKLR (receptor, phage library variant, format as m9) [TACI_d2 L82P]	> 61	> 49	–	–

Binder	F (BAFF) (human BAFF [1])	F (APRIL) (Murine APRIL [2])	F' BAFF (human BAFF [3])	F' APRIL (Murine APRIL [4])
SLSCRKEQGKFYDHVLRDCISCASICGQHPKQCAYFCENKLR (receptor, phage library variant, format as m9) [TACI_d2 L82V]	> 25	> 20	–	–
SLSCRKEQGKFYDHLVRDCISCASICGQHPKQCAYFCENKLR (receptor, phage library variant, format as m9) [TACI_d2 L83V]	1.6	4.8	–	–
SLSCRKEQGKFYDHLLRDCISCASICGQHPKQCAYFCENKAR (receptor, phage library variant, format as m9) [TACI_d2 L108A]	1.2	1	–	–
SLSCRKEQGKFYDHLLRDCISCASICGQHPKQCAYFCENKVR (receptor, phage library variant, format as m9) [TACI_d2 L108V]	1.2	0.9	–	–
SLSCRKEQGKFYDHLLRDCISCASICGQHPKQCAYFCEAKLR (receptor, phage library variant, format as m9) [TACI_d2 N106A]	0.9	1.2	–	–
SLSCRKEQGKFYDHLLRDCISCASICGQHPKQCAYFCETKLR (receptor, phage library variant, format as m9) [TACI_d2 N106T]	1.2	1.6	–	–
SLSCRKEAGKFYDHLLRDCISCASICGQHPKQCAYFCENKLR (receptor, phage library variant, format as m9) [TACI_d2 Q75A]	0.9	1.4	–	–
SLSCRKEEGKFYDHLLRDCISCASICGQHPKQCAYFCENKLR (receptor, phage library variant, format as m9) [TACI_d2 Q75E]	0.7	0.7	–	–
SLSCRKEPGKFYDHLLRDCISCASICGQHPKQCAYFCENKLR (receptor, phage library variant, format as m9) [TACI_d2 Q75P]	0.8	1.1	–	–
SLSCRKEQGKFYDHLLRDCISCASICGQHPKECAYFCENKLR (receptor, phage library variant, format as m9) [TACI_d2 Q99E]	0.8	1.6	–	–
SLSCRKEQGKFYDHLLRDCISCASICGQHPKPCAYFCENKLR (receptor, phage library variant, format as m9) [TACI_d2 Q99P]	1.8	1.5	–	–
SLSCAKEQGKFYDHLLRDCISCASICGQHPKQCAYFCENKLR (receptor, phage library variant, format as m9) [TACI_d2 R72A]	0.4	1.1	–	–
SLSCGKEQGKFYDHLLRDCISCASICGQHPKQCAYFCENKLR (receptor, phage library variant, format as m9) [TACI_d2 R72G]	0.4	0.6	–	–
SLSCPKEQGKFYDHLLRDCISCASICGQHPKQCAYFCENKLR (receptor, phage library variant, format as m9) [TACI_d2 R72P]	0.6	0.7	–	–
SLSCRKEQGKFYDHLLADCISCASICGQHPKQCAYFCENKLR (receptor, phage library variant, format as m9) [TACI_d2 R84A]	–	1.1	3	2
SLSCRKEQGKFYDHLLRDCISCASICGQHPKQCAYFCENKLA (receptor, phage library variant, format as m9) [TACI_d2 R109A]	0.9	1.5	–	–
SLSCRKEQGKFYDHLLRDCISCASICGQHPKQCAYFCENKLG (receptor, phage library variant, format as m9) [TACI_d2 R109G]	1.2	1.2	–	–
SLSCRKEQGKFYDHLLRDCISCASICGQHPKQCAYFCENKLP (receptor, phage library variant, format as m9) [TACI_d2 R109P]	1.2	1.2	–	–
SLSCRKEQGKFADHLLRDCISCASICGQHPKQCAYFCENKLR (receptor, phage library variant, format as m9) [TACI_d2 Y79A]	–	> 21	0	0
SLSCRKEQGKFYDHLLRDCISCASICGQHPKQCAAFCENKLR (receptor, phage library variant, format as m9) [TACI_d2 Y102A]	2	1.6	–	–
